Laboratory results from article PMC10786891, “Massively parallel profiling of RNA-targeting CRISPR-Cas13d”.

T1: EsCas13d, nuclease-dead (Eubacterium siraeum, UniProt B0MS50, R295A;H300A;R849A;H854A)
T1 sequence: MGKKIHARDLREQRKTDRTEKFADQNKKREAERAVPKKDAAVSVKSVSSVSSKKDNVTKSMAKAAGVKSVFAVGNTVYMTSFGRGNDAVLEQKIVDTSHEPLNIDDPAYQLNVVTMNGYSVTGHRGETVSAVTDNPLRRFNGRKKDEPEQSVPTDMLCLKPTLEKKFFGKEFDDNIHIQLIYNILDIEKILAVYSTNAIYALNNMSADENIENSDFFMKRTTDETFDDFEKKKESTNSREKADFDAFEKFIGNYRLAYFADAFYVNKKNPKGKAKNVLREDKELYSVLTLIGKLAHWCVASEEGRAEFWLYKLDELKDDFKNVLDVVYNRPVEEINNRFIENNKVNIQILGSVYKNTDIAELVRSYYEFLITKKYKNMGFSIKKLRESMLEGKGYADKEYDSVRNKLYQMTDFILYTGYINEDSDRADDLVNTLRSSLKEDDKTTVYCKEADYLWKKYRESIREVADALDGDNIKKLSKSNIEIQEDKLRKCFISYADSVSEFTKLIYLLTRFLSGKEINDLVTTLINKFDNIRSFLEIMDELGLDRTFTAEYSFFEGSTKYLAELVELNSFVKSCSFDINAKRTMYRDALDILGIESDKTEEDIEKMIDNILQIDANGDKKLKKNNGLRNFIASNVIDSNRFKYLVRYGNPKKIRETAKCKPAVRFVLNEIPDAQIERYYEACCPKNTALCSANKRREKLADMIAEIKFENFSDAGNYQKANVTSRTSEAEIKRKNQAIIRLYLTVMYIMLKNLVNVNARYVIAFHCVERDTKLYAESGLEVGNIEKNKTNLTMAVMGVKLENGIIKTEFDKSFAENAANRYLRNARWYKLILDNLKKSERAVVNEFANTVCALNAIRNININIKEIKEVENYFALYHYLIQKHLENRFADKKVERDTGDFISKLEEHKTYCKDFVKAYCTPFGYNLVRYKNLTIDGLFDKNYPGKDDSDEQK


What follows are binders tested against T1, EsCas13d, nuclease-dead (assay: crRNA (strand 1, pre-loaded); Mg2+; 40 mM Tris-HCl pH 7.5, 150 mM NaCl, 6 mM MgCl2, 1 mM DTT, 0.1% Tween-20, 0.2 mg/ml BSA; 25 C; 10 min per concentration, then washed). Details: tags: His6-TwinStrep-SUMO cleaved; N-terminal SNAP kept (SNAP-Surface 488); label: 3' end held by stalled T7 RNA polymerase.

Binder	Kd [nM]
target 1 insG 3' of 4,insC 3' of 1 (mixed) RNA 1: CACCCGUGCAAAAAUGCAGGGGUCUAAAACUGAGCGGAUAACCUCUCUAUGG RNA 2: GGGAAUGGAUCCACAUCUACGAAUUCGUACCAUAGAGAGGUUAUCCGCGUCACCCGAGAUCGGAAGAGCACACGU	12.6 ± 1
target 2 MT 5'PFS ACU 3'PFS CUC (mixed) RNA 1: CACCCGUGCAAAAUUGCAGGGGUCUAAAACCUUCUCCAAAUUGUUUCAUCCU RNA 2: GGGAAUGGAUCCACAUCUACGAAUUCACUAGGAUGAAACAAUUUGGAGAAGCUCAGAUCGGAAGAGCACACGU	5.4 ± 1.4
target 2 MT 5'PFS GUA 3'PFS UGC (mixed) RNA 1: CACCCGUGCAAAAUUGCAGGGGUCUAAAACCUUCUCCAAAUUGUUUCAUCCU RNA 2: GGGAAUGGAUCCACAUCUACGAAUUCGUAAGGAUGAAACAAUUUGGAGAAGUGCAGAUCGGAAGAGCACACGU	11.4 ± 1.5
target 2 MT 5'PFS ACU 3'PFS CUA (mixed) RNA 1: CACCCGUGCAAAAUUGCAGGGGUCUAAAACCUUCUCCAAAUUGUUUCAUCCU RNA 2: GGGAAUGGAUCCACAUCUACGAAUUCACUAGGAUGAAACAAUUUGGAGAAGCUAAGAUCGGAAGAGCACACGU	3.5 ± 0.5
target 2 MT 5'PFS ACU 3'PFS CUG (mixed) RNA 1: CACCCGUGCAAAAUUGCAGGGGUCUAAAACCUUCUCCAAAUUGUUUCAUCCU RNA 2: GGGAAUGGAUCCACAUCUACGAAUUCACUAGGAUGAAACAAUUUGGAGAAGCUGAGAUCGGAAGAGCACACGU	6 ± 0.7
target 2 MT 5'PFS GAA 3'PFS AUG (mixed) RNA 1: CACCCGUGCAAAAUUGCAGGGGUCUAAAACCUUCUCCAAAUUGUUUCAUCCU RNA 2: GGGAAUGGAUCCACAUCUACGAAUUCGAAAGGAUGAAACAAUUUGGAGAAGAUGAGAUCGGAAGAGCACACGU	8.3 ± 1.1
target 2 MT 5'PFS UAG 3'PFS UGA (mixed) RNA 1: CACCCGUGCAAAAUUGCAGGGGUCUAAAACCUUCUCCAAAUUGUUUCAUCCU RNA 2: GGGAAUGGAUCCACAUCUACGAAUUCUAGAGGAUGAAACAAUUUGGAGAAGUGAAGAUCGGAAGAGCACACGU	4.1 ± 0.8
target 2 MT 5'PFS GAA 3'PFS AUC (mixed) RNA 1: CACCCGUGCAAAAUUGCAGGGGUCUAAAACCUUCUCCAAAUUGUUUCAUCCU RNA 2: GGGAAUGGAUCCACAUCUACGAAUUCGAAAGGAUGAAACAAUUUGGAGAAGAUCAGAUCGGAAGAGCACACGU	10.2 ± 1.6
target 2 MT 5'PFS GAA 3'PFS AUA (mixed) RNA 1: CACCCGUGCAAAAUUGCAGGGGUCUAAAACCUUCUCCAAAUUGUUUCAUCCU RNA 2: GGGAAUGGAUCCACAUCUACGAAUUCGAAAGGAUGAAACAAUUUGGAGAAGAUAAGAUCGGAAGAGCACACGU	8.1 ± 1.4
target 2 MT 5'PFS UUU 3'PFS UAC (mixed) RNA 1: CACCCGUGCAAAAUUGCAGGGGUCUAAAACCUUCUCCAAAUUGUUUCAUCCU RNA 2: GGGAAUGGAUCCACAUCUACGAAUUCUUUAGGAUGAAACAAUUUGGAGAAGUACAGAUCGGAAGAGCACACGU	9.1 ± 1.2
target 2 MT 5'PFS UUU 3'PFS UAA (mixed) RNA 1: CACCCGUGCAAAAUUGCAGGGGUCUAAAACCUUCUCCAAAUUGUUUCAUCCU RNA 2: GGGAAUGGAUCCACAUCUACGAAUUCUUUAGGAUGAAACAAUUUGGAGAAGUAAAGAUCGGAAGAGCACACGU	10.9 ± 1.7
target 1 insA 3' of 17,insU 3' of 9 (mixed) RNA 1: CACCCGUGCAAAAAUGCAGGGGUCUAAAACUGAGCGGAUAACCUCUCUAUGG RNA 2: GGGAAUGGAUCCACAUCUACGAAUUCGUACCAUAGAAGAGGUUAUUCCGCUCACCGAGAUCGGAAGAGCACACGU	18.6 ± 3.3
target 2 MT 5'PFS AAA 3'PFS CGC (mixed) RNA 1: CACCCGUGCAAAAUUGCAGGGGUCUAAAACCUUCUCCAAAUUGUUUCAUCCU RNA 2: GGGAAUGGAUCCACAUCUACGAAUUCAAAAGGAUGAAACAAUUUGGAGAAGCGCAGAUCGGAAGAGCACACGU	3.3 ± 1
target 2 MT 5'PFS AAA 3'PFS CGA (mixed) RNA 1: CACCCGUGCAAAAUUGCAGGGGUCUAAAACCUUCUCCAAAUUGUUUCAUCCU RNA 2: GGGAAUGGAUCCACAUCUACGAAUUCAAAAGGAUGAAACAAUUUGGAGAAGCGAAGAUCGGAAGAGCACACGU	3.4 ± 0.8
target 2 MT 5'PFS UUU 3'PFS UAU (mixed) RNA 1: CACCCGUGCAAAAUUGCAGGGGUCUAAAACCUUCUCCAAAUUGUUUCAUCCU RNA 2: GGGAAUGGAUCCACAUCUACGAAUUCUUUAGGAUGAAACAAUUUGGAGAAGUAUAGAUCGGAAGAGCACACGU	8.4 ± 0.9
target 2 MT 5'PFS UUG 3'PFS AGG (mixed) RNA 1: CACCCGUGCAAAAUUGCAGGGGUCUAAAACCUUCUCCAAAUUGUUUCAUCCU RNA 2: GGGAAUGGAUCCACAUCUACGAAUUCUUGAGGAUGAAACAAUUUGGAGAAGAGGAGAUCGGAAGAGCACACGU	14.1 ± 1.5
target 2 MT 5'PFS UUG 3'PFS AGA (mixed) RNA 1: CACCCGUGCAAAAUUGCAGGGGUCUAAAACCUUCUCCAAAUUGUUUCAUCCU RNA 2: GGGAAUGGAUCCACAUCUACGAAUUCUUGAGGAUGAAACAAUUUGGAGAAGAGAAGAUCGGAAGAGCACACGU	7.9 ± 0.5
target 2 MT 5'PFS UUG 3'PFS AGC (mixed) RNA 1: CACCCGUGCAAAAUUGCAGGGGUCUAAAACCUUCUCCAAAUUGUUUCAUCCU RNA 2: GGGAAUGGAUCCACAUCUACGAAUUCUUGAGGAUGAAACAAUUUGGAGAAGAGCAGAUCGGAAGAGCACACGU	13.7 ± 2
target 2 MT 5'PFS CGA 3'PFS CUC (mixed) RNA 1: CACCCGUGCAAAAUUGCAGGGGUCUAAAACCUUCUCCAAAUUGUUUCAUCCU RNA 2: GGGAAUGGAUCCACAUCUACGAAUUCCGAAGGAUGAAACAAUUUGGAGAAGCUCAGAUCGGAAGAGCACACGU	9.3 ± 1.8
target 2 MT 5'PFS AAU 3'PFS UGU (mixed) RNA 1: CACCCGUGCAAAAUUGCAGGGGUCUAAAACCUUCUCCAAAUUGUUUCAUCCU RNA 2: GGGAAUGGAUCCACAUCUACGAAUUCAAUAGGAUGAAACAAUUUGGAGAAGUGUAGAUCGGAAGAGCACACGU	9.1 ± 1.4
target 2 MT 5'PFS UUG 3'PFS AGU (mixed) RNA 1: CACCCGUGCAAAAUUGCAGGGGUCUAAAACCUUCUCCAAAUUGUUUCAUCCU RNA 2: GGGAAUGGAUCCACAUCUACGAAUUCUUGAGGAUGAAACAAUUUGGAGAAGAGUAGAUCGGAAGAGCACACGU	14.5 ± 2.2
target 2 MT 5'PFS AUU 3'PFS UGU (mixed) RNA 1: CACCCGUGCAAAAUUGCAGGGGUCUAAAACCUUCUCCAAAUUGUUUCAUCCU RNA 2: GGGAAUGGAUCCACAUCUACGAAUUCAUUAGGAUGAAACAAUUUGGAGAAGUGUAGAUCGGAAGAGCACACGU	13.5 ± 1.7
target 1 insG 3' of 4,insA 3' of 2 (mixed) RNA 1: CACCCGUGCAAAAAUGCAGGGGUCUAAAACUGAGCGGAUAACCUCUCUAUGG RNA 2: GGGAAUGGAUCCACAUCUACGAAUUCGUACCAUAGAGAGGUUAUCCGCGUCAACCGAGAUCGGAAGAGCACACGU	5.43 ± 0.18
target 2 MT 5'PFS UGC 3'PFS CUA (mixed) RNA 1: CACCCGUGCAAAAUUGCAGGGGUCUAAAACCUUCUCCAAAUUGUUUCAUCCU RNA 2: GGGAAUGGAUCCACAUCUACGAAUUCUGCAGGAUGAAACAAUUUGGAGAAGCUAAGAUCGGAAGAGCACACGU	16 ± 6
target 2 MT 5'PFS UGC 3'PFS CUC (mixed) RNA 1: CACCCGUGCAAAAUUGCAGGGGUCUAAAACCUUCUCCAAAUUGUUUCAUCCU RNA 2: GGGAAUGGAUCCACAUCUACGAAUUCUGCAGGAUGAAACAAUUUGGAGAAGCUCAGAUCGGAAGAGCACACGU	26 ± 6
target 2 MT 5'PFS UGC 3'PFS CUG (mixed) RNA 1: CACCCGUGCAAAAUUGCAGGGGUCUAAAACCUUCUCCAAAUUGUUUCAUCCU RNA 2: GGGAAUGGAUCCACAUCUACGAAUUCUGCAGGAUGAAACAAUUUGGAGAAGCUGAGAUCGGAAGAGCACACGU	34 ± 9
target 2 MT 5'PFS GUU 3'PFS UAC (mixed) RNA 1: CACCCGUGCAAAAUUGCAGGGGUCUAAAACCUUCUCCAAAUUGUUUCAUCCU RNA 2: GGGAAUGGAUCCACAUCUACGAAUUCGUUAGGAUGAAACAAUUUGGAGAAGUACAGAUCGGAAGAGCACACGU	22 ± 4
target 2 MT 5'PFS GUU 3'PFS UAA (mixed) RNA 1: CACCCGUGCAAAAUUGCAGGGGUCUAAAACCUUCUCCAAAUUGUUUCAUCCU RNA 2: GGGAAUGGAUCCACAUCUACGAAUUCGUUAGGAUGAAACAAUUUGGAGAAGUAAAGAUCGGAAGAGCACACGU	15.3 ± 3.3
